Measured values as given in patent US20190112361A1 (Genentech, published 2019).
No end group written: not given here.

T1: Tau fragment 28-42 (human, UniProt P10636-8 28-42)
T1 construct: range 28-42
T1 peptide (looked up): GYTMHQDQEGDTDAG

T2: Tau fragment 37-51 (human, UniProt P10636-8 37-51)
T2 construct: range 37-51
T2 peptide (looked up): GDTDAGLKESPLQTP

T3: Tau fragment 1-15 (human, UniProt P10636-8 1-15)
T3 construct: range 1-15
T3 peptide (looked up): MAEPRQEFEVMEDHA

T4: Tau fragment 19-33 (human, UniProt P10636-8 19-33)
T4 construct: range 19-33
T4 peptide (looked up): GLGDRKDQGGYTMHQ

T5: MAPT(10-24) (human, also: biotinylated)
T5 construct: also called Tau fragment 10-24
T5 peptide: VMEDHAGTYGLGDRK

T6: MAPT(2-24) (human, biotinylated)
T6 construct: also called Tau fragment 2-24
T6 peptide: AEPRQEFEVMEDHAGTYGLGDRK

T7: MAPT(2-34) (human, biotinylated)
T7 construct: also called Tau fragment 2-34
T7 peptide: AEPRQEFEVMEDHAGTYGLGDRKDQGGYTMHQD


Experiments:
[1] = molecular target: T8, Oligomers (In vitro oligomerised (arachidonic acid and heparin) homo-oligomer of one polypeptide; one copy of the chain is given. Biotin sits on the AVI-tag, which is left out.); test: capture ELISA, antibody on anti-IgG plate, biotinylated oligomeric Tau titrated
T8 construct: also called oligoTau; oligomeric Tau; not shown: AVI-tag (site-specifically biotinylated) and any purification tag or linker of the construct
Description: For the oligoTau and monoTau capture ELISAs, antibodies contained in serum-free sterile hybridoma supernatants were immobilized on an anti-IgG coated plate at 500-fold dilution, followed by the incubation of oligoTau or monoTau, both with site-specific biotinylation via an AVI-tag. The target incubations started at 5 μg/mL and then were diluted 8- or 16-fold. Streptavidin-HRP and ABTS substrate was used for signal quantitation in a plate reader (Tecan, Switzerland). Results are expressed as O.D.

[2] = molecular target: T1, Tau fragment 28-42; test: ELISA on Tau peptides (Example 8)
[3] = molecular target: T2, Tau fragment 37-51; test: ELISA on Tau peptides (Example 8)
[4] = molecular target: T3, Tau fragment 1-15; test: ELISA on Tau peptides (Example 8)
[5] = molecular target: T4, Tau fragment 19-33; test: ELISA on Tau peptides (Example 8)
[6] = molecular target: T5, MAPT(10-24); test: ELISA on Tau peptides (Example 8)
[7] = molecular target: T6, MAPT(2-24); test: ELISA, biotinylated peptide on Neutravidin plate, IgG titrated
Description: (§1) Following a comparison of 37D3-H9 binding to biotinylated Tau monomer and biotinylated peptide (MAPT_10-24), binding of 37D3-H9 to additional biotinylated peptides was also assessed. Nunc maxisorp 96-well microplates were coated at 4° C. for >12 hours with Neutravidin diluted to 2 μg/ml in 50 mM Sodium Carbonate Buffer, pH 9.6. All subsequent incubations were performed at room temperature. After coating, plates were blocked with Superblock™ (PBS) Blocking Buffer (Thermo Fisher Scientific) for two hours then washed thoroughly with PBS, 0.05% Polysorbate 20. Wells were then exposed to biotinylated Tau peptides (Table 20) or Avi-tag biotinylated Tau monomer at 1 μg/ml for one hour and washed as previously. Peptides were synthesized using standard solid-phase Fmoc chemistry (see, e.g., Fmoc solid phase peptide synthesis: A practical approach; Chan, W. C., White, P. D., Eds.; Oxford University Press: New York, 2000). […] Wells were washed as previously and bound antibody detected with peroxidase-conjugated secondary antibody (Invitrogen/Life Technologies) diluted 1/1000 in Superblock™ Blocking Buffer (Rabbit anti-Mouse IgG or Goat Anti-Human IgG (H+L) respectively). […] Reactions were stopped by addition of 1M Phosphoric Acid and absorbance at 450 nm was measured with a SpectraMax M2 platereader.

[8] = molecular target: T7, MAPT(2-34); test: as above
Description: as §1

[9] = molecular target: T9, human Tau monomer (recombinant 2N4R isoform, amino acids 2-441) (human, UniProt P10636-8 2-441); test: ELISA, Avi-tag biotinylated Tau monomer on Neutravidin plate, IgG titrated
T9 construct: range 2-441; also called monomeric human Tau; monomeric Tau
Description: as §1

Binder | binding result [1] | binding result [2] | binding result [3] | binding result [4] | binding result [5] | binding result [6] | also measured
26C1-C8 (antibody, V domains shown, hybridoma supernatant) VH: EVHLQQSGAELVRSGASVKLSCTASGFNIKDYYMYWVKQRPEQGLEWIGWIDPENGDTEYFPKFQGKATMTADTSSKTAYLQLSSLTSEDTAVYYCNAWRARATNSALDYWGQGTSVTVSS VL: not shown | binds | – | – | – | – | – | –
94B2-C1 (antibody, mouse IgG2a, V domains shown) VH: EVQLQQSGPELVKPGASMKISCKASGYSLTGYTMNWVKQSHGKNLEWIGLISPYNGVTSYNQKFKGKATLTVDKSSNTAYMELLSLTFEDSAVYYCARQGAYWGQGTLVTVSA VL: not shown | – | no binding (tested: not shown on the sheet) | no binding (tested: not shown on the sheet) | – | – | – | –
19H6-F7 (antibody, mouse IgG2a, V domains shown) VH: EVQLVESGGDLVKPGGSLKLSCAASGFTFSSYGMSWVRQTPDKRLEWVATISSGGTYTYYPDSVKGRFTISRDNAKNTLYLQMSSLKSEDTAMYYCAPSYDGAMDYWGQGTSVTVSS VL: DVLMTQTPLSLPVSLGDQASISCRSSQSIVHSNGNTYLEWYLQKPGQSPKLLIYKVSNRFSGVPDRFSGSGSGTDFTLKISRVEAEDLGVYYCFQGSLVPWTFGGGTKLEIK | – | no binding (tested: not shown on the sheet) | no binding (tested: not shown on the sheet) | no binding (tested: not shown on the sheet) | no binding (tested: not shown on the sheet) | – | –
19F8-B1 (antibody, V domains shown, hybridoma supernatant) VH: EVQLQQSGPELVKPGASVKMSCKASGYTFTDYYMKWVKQSHGKSLEWIGDLNPNNGGTLYNQKFKGQATLTVDKSSSTAYMQFNSLTSEDSAVYYCARSAGYGDSFAYWGQGTLVTVSA VL: DVLMTQTPLSLPVSLGDQASISCRSSQNIVHSNGNTYLEWYLQKPGQSPKLLIYKVSNRFSGVPDRFSGSGSGTDFTLKISRVEAEDLGIYFCFQGSHVPPTFGGGTKLEIK | binds | – | – | – | – | – | –
123E9-A1 (antibody, mouse IgG2a, V domains shown) VH: EVQLQQSGPELVKPGASVKMSCKASGYTFTDYYMKWVKQSHGKSLEWIGDIDPNNGGTSYNQKFKGKATLTVDKSSSTAYMQLNSLTSEDSAVYYCARSAGFGDSFSFWGLGTLVTVSA VL: DVLMTQTPLSLPVSLGDQASISCRSSQSIVHSNGNTYLEWYLQKPGQSPKLLIYKVSNRFSGVPDRFSGSGSGTDFTLKISRVEAEDLGFYYCFQGSHVPPTFGGGTKLEIK | – | – | no binding (tested: not shown on the sheet) | no binding (tested: not shown on the sheet) | – | no binding (tested: not shown on the sheet) | –
54C1-H11 (antibody, mouse IgG2a, V domains shown) VH: EVQLVESGGDLVKPGGSLKVSCVASGFTFRSYGMSWVRQTPDKRLDWVATISSGGNYTYYPDSVKGRFTISRDNAKNTLYLQMSSLKSEDTAMYYCASSYSGAMDYWGQGTSVTVSS VL: DTVMTQSPLSLPVSLGDQASISCRSSQSIVHSNGNTYLEWYLQKPGQSPKLLIYTVSNRFSGVPDRFSGSGSGTDFTLKISRVEAEDLGVYYCFQGSHVPWTFGGGTKLEIK | – | no binding (tested: not shown on the sheet) | no binding (tested: not shown on the sheet) | no binding (tested: not shown on the sheet) | no binding (tested: not shown on the sheet) | – | –
11E10-B8 (antibody, mouse IgG2a, V domains shown) VH: EVQLVESGGDLVKPGGSLKLSCAASGFTFRSYGMSWVRQTPDKRLEWVATISGGGSYTYYPDSVKGRFTISRDNAKNTLYLQMSSLKSEDTAMYYCAVSYDGAMDYWGQGTSVTVSS VL: DVLMTQTPLSLPVSLGDQASISCRSSQSIVHSNGNTYLEWYLQKPGQSPKLLIYKVSNRFSGVPDRFSGSGSGTDFTLKISRVEAEDLGLYYCFQGSHVPWTFGGGTKLEIK | binds | – | – | – | – | – | –
37D3-H9 (antibody, mouse IgG2a, V domains shown, also called 37D3-H9 mIgG2a; 37D3-H9 IgG) VH: EVQLVESGGDLAKPGGSLKLSCTASGLIFRSYGMSWVRQTPDKRLEWVATINSGGTYTYYPDSVKGRFTISRDNAKNTLYLQMSSLKSEDTAMYYCANSYSGAMDYWGQGTSVTVSS VL: DDLLTQTPLSLPVSLGDPASISCRSSQSIVHSNGNTYFEWYLQKPGQSPKLLIYKVSNRFSGVPDRFSGSGSGTDFTLKISRVEAEDLGVYYCFQGSLVPWTFGGGTKLEIK | – | no binding (tested: not shown on the sheet) | no binding (tested: not shown on the sheet) | no binding (tested: not shown on the sheet) | no binding (tested: not shown on the sheet) | – | EC50 (read off the curve) [7]: ~0.2 nM; EC50 (read off the curve) [8]: ~0.2 nM; EC50 (read off the curve) [9]: ~0.1 nM
3A4-H4 (antibody, mouse IgG2a, V domains shown) VH: EVQLVESGGDLVKPGGSLKLSCAASGFTFSSYGMSWVRQTPDKRLEWVATISSGGTYTYYPDSVKGRFTISRDNAKNTLYLQMSSLKSEDTAMYFCATSYDGAMDYWGQGTSVTVSS VL: DVLMTQTPLSLPVSLGDQASISCRSSQNIVHSNGNTYLEWYLQKPGQSPKLLIYKVSNRFSGVPDRFSGSGSGTDFTLKISRVEAEDLGVYYCFQGTLVPWTFGGGTKLEIK | – | no binding (tested: not shown on the sheet) | no binding (tested: not shown on the sheet) | no binding (tested: not shown on the sheet) | no binding (tested: not shown on the sheet) | binds | –
89F4-A1 (antibody, mouse IgG2a, V domains shown) VH: EVQLVESGGGLVQPKGSLKLSCAASGFTFNTYAMNWVRQAPGKGLEWVARIRSKSNNYAAYFADSVKDRFTISRDDSQTMLYLQMNNLKSEDTAMYYCVSGGNYVPFAYWGQGTLVTVSA VL: NIMMTQSPSSLAVSAGEKVTMSCKSSQSVFYSSEQRNYLAWYQQKPGQSPKLLISWASTRESGVPDRFTGSGSGTDFTLTISSVQGEDLAVYYCHQYLSSFTFGSGTKLEIK | – | – | – | no binding (tested: not shown on the sheet) | no binding (tested: not shown on the sheet) | no binding (tested: not shown on the sheet) | –
